Data on 84 variants can be found in the RNAGym collection of RNA variant scans (doi:10.1073/pnas.2313332121).

This sample holds only a part of the variants without activity.

Sequences and labels used below:
B1: TPR 5TU (parent)
chain: GGAUCUUCUCGAUCUAACAAAAAAGACAAAUCUGCCACAAAGCUUGAGAGCAUCUUCGGAUGCAGAGGCGGCAGCCUUCGGUGGCGCGAUAGCGCCAACGUUCUCAACUAUGACACGCAAAACGCGUGCUCCGUUGAAUGGAGUUUAUCAUG

In this data set the parent is B1. The data set can be described thus: polymerase ribozyme fitness, log enrichment relative to wild type (log ratio); higher = more active; in vitro selection for triplet polymerase activity. In a few lines: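 Frozen incubation at −7 °C formed the core of a single, triplicate in vitro selection round applied to PCR-built, transcribed mutant libraries of each subunit of a heterodimeric triplet polymerase ribozyme. Extended constructs were gel-excised, captured with streptavidin beads and amplified by RT-PCR, and input and output libraries were Illumina-sequenced with a filter of ≥10 input reads and ≥1 read per output. Fitness is the logarithm of genotype enrichment relative to wild-type enrichment, with inverse-variance-weighted replicate averaging, and the logarithm is base 2.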
As to G83A C131U U139A G143A, the “polymerase ribozyme fitness (log ratio)” value was not above -4.2.

G83A A115G G136A U144C: the “polymerase ribozyme fitness (log ratio)” value was -3.84.

As for U82G C93U, the “polymerase ribozyme fitness (log ratio)” value was -1.51.

For the variant C85G C87U U145G, the “polymerase ribozyme fitness (log ratio)” value was -3.08.

On to C79U G143U, for which the “polymerase ribozyme fitness (log ratio)” value was -4.12.

In the case of U82C C95U, the “polymerase ribozyme fitness (log ratio)” value was -1.92.

Consider C79G C96U, for which the “polymerase ribozyme fitness (log ratio)” value is -3.8.

On to C79G C87U U144G, for which the “polymerase ribozyme fitness (log ratio)” value was -4.04.

Regarding G83A C118U G126A, the “polymerase ribozyme fitness (log ratio)” value was -2.89.

In the case of G81C C93G A113C C116U G117A C129A, the “polymerase ribozyme fitness (log ratio)” value was not above -4.2.

For G84A U101C U146A, the “polymerase ribozyme fitness (log ratio)” value is -0.212.

As for G80A C85G C116G, the “polymerase ribozyme fitness (log ratio)” value is -2.05.

Regarding C79G A122U, the “polymerase ribozyme fitness (log ratio)” value was -3.58.

On to G83C C118A, for which the “polymerase ribozyme fitness (log ratio)” value was -1.14.

Consider U82G A107U, for which the “polymerase ribozyme fitness (log ratio)” value is -2.6.

On to G84A G126U, for which the “polymerase ribozyme fitness (log ratio)” value was -0.0664.

Consider G84A G126A, for which the “polymerase ribozyme fitness (log ratio)” value came to 0.571.

With G84A G117A C129A, the “polymerase ribozyme fitness (log ratio)” value was -2.45.

With C85G C103A G140U, the “polymerase ribozyme fitness (log ratio)” value was not above -4.2.

With G81U A98G, the “polymerase ribozyme fitness (log ratio)” value was -0.549.

As to G84C C93U, the “polymerase ribozyme fitness (log ratio)” value was -4.07.

Take G84C U102A A147U: the “polymerase ribozyme fitness (log ratio)” value is -3.01.

U82G G133C G140A: the “polymerase ribozyme fitness (log ratio)” value was -3.39.

Take G84A G152A: the “polymerase ribozyme fitness (log ratio)” value was -2.93.

As to G84A U139A, the “polymerase ribozyme fitness (log ratio)” value is -4.11.

Regarding C85A A106C G140C, the “polymerase ribozyme fitness (log ratio)” value is not above -4.2.

Turning to U82C C131G, the “polymerase ribozyme fitness (log ratio)” value was -2.45.

With G83C A113U U145C, the “polymerase ribozyme fitness (log ratio)” value was -3.3.

For the variant G81U A98U C116A, the “polymerase ribozyme fitness (log ratio)” value is 0.542.

For G84U G141C U144A, the “polymerase ribozyme fitness (log ratio)” value was not above -4.2.

Regarding G84A U102A C132U, the “polymerase ribozyme fitness (log ratio)” value was -2.3.

In the case of U82A A107C, the “polymerase ribozyme fitness (log ratio)” value is -3.72.

With G80A U82G, the “polymerase ribozyme fitness (log ratio)” value was 0.0436.

U82A A106C: the “polymerase ribozyme fitness (log ratio)” value was -0.884.

U82A A106U: the “polymerase ribozyme fitness (log ratio)” value is -1.16.

As for G84U A150G, the “polymerase ribozyme fitness (log ratio)” value was -2.7.

As to G84A A91G A122C, the “polymerase ribozyme fitness (log ratio)” value is -3.61.

For the variant G84U C85G C96G, the “polymerase ribozyme fitness (log ratio)” value is -3.84.

With G84A A121G C123U C131U, the “polymerase ribozyme fitness (log ratio)” value came to 0.94.

In the case of C85G A121U, the “polymerase ribozyme fitness (log ratio)” value was -3.11.

Take G83A C118G: the “polymerase ribozyme fitness (log ratio)” value is -0.683.

For U82A G86C, the “polymerase ribozyme fitness (log ratio)” value is -2.69.

On to G83C G92C G100A U104G U146A, for which the “polymerase ribozyme fitness (log ratio)” value was not above -4.2.

In the case of G84A C103U, the “polymerase ribozyme fitness (log ratio)” value was -2.51.

As for G84A C103G, the “polymerase ribozyme fitness (log ratio)” value was -2.32.

With G83C A107U G143A U146C, the “polymerase ribozyme fitness (log ratio)” value is not above -4.2.

Take G81A C93A: the “polymerase ribozyme fitness (log ratio)” value is -2.37.

For the variant G83A C129G, the “polymerase ribozyme fitness (log ratio)” value is -3.81.

With C79G C85U, the “polymerase ribozyme fitness (log ratio)” value is -4.04.

Consider G84A C93G, for which the “polymerase ribozyme fitness (log ratio)” value is -3.77.

Take C85G A115U: the “polymerase ribozyme fitness (log ratio)” value is -3.56.

Turning to G81C G141A, the “polymerase ribozyme fitness (log ratio)” value is -1.94.

Regarding G84A C125A C132A G140U, the “polymerase ribozyme fitness (log ratio)” value is -1.25.

In the case of G84A C108U, the “polymerase ribozyme fitness (log ratio)” value was -2.74.

On to G83C U104G C118A, for which the “polymerase ribozyme fitness (log ratio)” value was -3.08.

Turning to G80C C85A G94C C132U G141U U148C, the “polymerase ribozyme fitness (log ratio)” value is not above -4.2.

As for C85A C116U A122C, the “polymerase ribozyme fitness (log ratio)” value is -4.17.

Consider G83U C103U C116A G117A U148A, for which the “polymerase ribozyme fitness (log ratio)” value is not above -4.2.

G81A U104G C105A G136C U146C: the “polymerase ribozyme fitness (log ratio)” value was not above -4.2.

As for G84A U102C C105A A107G, the “polymerase ribozyme fitness (log ratio)” value was not above -4.2.

In the case of G83A C93U A107G, the “polymerase ribozyme fitness (log ratio)” value was not above -4.2.

As for C85G A107U G126U C132U, the “polymerase ribozyme fitness (log ratio)” value is not above -4.2.

As for G83U G94A U127C, the “polymerase ribozyme fitness (log ratio)” value is -3.92.

Turning to G80C C85U, the “polymerase ribozyme fitness (log ratio)” value was -3.96.

With G81C G117U, the “polymerase ribozyme fitness (log ratio)” value was 0.139.

With G81A A97G A115G, the “polymerase ribozyme fitness (log ratio)” value was -0.993.

As to G84A G141A, the “polymerase ribozyme fitness (log ratio)” value was -0.675.

As to C85G G128A, the “polymerase ribozyme fitness (log ratio)” value was not above -4.2.

Take U82G C95U U102G: the “polymerase ribozyme fitness (log ratio)” value is -3.59.

Take G83A G92U C96A A147C: the “polymerase ribozyme fitness (log ratio)” value is -3.05.

C85A C114U: the “polymerase ribozyme fitness (log ratio)” value is -3.28.

G84A A98U: the “polymerase ribozyme fitness (log ratio)” value was -0.469.

As for G83C C85U C87U, the “polymerase ribozyme fitness (log ratio)” value is -2.71.

As to C85G G92C G128A, the “polymerase ribozyme fitness (log ratio)” value was not above -4.2.

Regarding G81C C85A A142G, the “polymerase ribozyme fitness (log ratio)” value is -1.69.

For G83A C87U A106C C125G G152A, the “polymerase ribozyme fitness (log ratio)” value is -3.25.

As for G84A U109A A115C C123A, the “polymerase ribozyme fitness (log ratio)” value is -1.8.

In the case of G81A C118G, the “polymerase ribozyme fitness (log ratio)” value is -1.67.

In the case of C85A U130G, the “polymerase ribozyme fitness (log ratio)” value is -3.53.

Take U82C C93G: the “polymerase ribozyme fitness (log ratio)” value is -3.99.

With U78G U148C, the “polymerase ribozyme fitness (log ratio)” value was -4.15.

For G80C G88C C103A A122U A138G, the “polymerase ribozyme fitness (log ratio)” value was not above -4.2.

As for G83U C114G A115U A119U U134A, the “polymerase ribozyme fitness (log ratio)” value was not above -4.2.

As for C79A G141C, the “polymerase ribozyme fitness (log ratio)” value was -3.95.
